Source: the supplement of paper PMC10126150
± gives the standard deviation of the averaged measurements.

Each sequence was assayed on ATP (assay: switch fluorescence ratio, 500 uM ATP over buffer (Cy3 cluster intensity, sum of 5 cycles each) (fold (ratio)); higher = stronger signal-on switching upon ATP binding; sequences stand for … in TCGTCGGCAGCGTCAGATGTGTATAAGAGACAGTTTTTTTTTTTTTTTTTTTTTTTTT…TC). Details: aptamer strand: ATP DNA aptamer (quencher-CACCTGGGGGAGTATTGCGGAGGAAGG + anchor), 100 nM annealed; ATP concentration: 500 uM.
Summary of the method: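 For every switch-domain sequence, the fluorescence ratio is the mean of per-cluster values, each being summed target-cycle Cy3 intensity over summed buffer-cycle Cy3 intensity. Clusters outside 100-1000 RFU were excluded. On a modified Illumina MiSeq flow-cell, the Cy3-labelled switching-strand clusters were annealed to 100 nM quencher-labelled ATP aptamer, imaged in selection buffer and then after 15 min with 500 uM ATP at 22 °C. Five such cycles were run, with NaOH stripping and re-annealing between them.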
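Further: ATP exposure 15 min at 22 °C before imaging.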

First: AAACTTTCTA
Second: AAACTTTTTT
The switch fluorescence ratio of the first is higher: 1.05 ± 0.05 for the first, 0.9566 ± 0.0049 for the second.

AAAGAAAAAT and AAAGAAATTA are within error of each other in switch fluorescence ratio: 1.002 ± 0.005 for the first, 0.997 ± 0.042 for the second.

Going from AAAGAACCG to AAAGAACGCT, the switch fluorescence ratio falls from 1.085 ± 0.0014 to 1.04 ± 0.015.

AAAGAAGCTT and AAAGAAGGGG are within error of each other in switch fluorescence ratio: 1.02 ± 0.041 for the first, 0.995 ± 0.015 for the second.

AAAGAATTTT and AAAGACACTC are within error of each other in switch fluorescence ratio: 1 ± 0.05 for the first, 1.04 ± 0.071 for the second.

AAAGACAGTG and AAAGACCCTG are within error of each other in switch fluorescence ratio: 1.01 ± 0.058 for the first, 0.988 ± 0.049 for the second.

AAAGAGCGGG and AAAGAGGCAA are within error of each other in switch fluorescence ratio: 1.02 ± 0.061 for the first, 1.03 ± 0.047 for the second.

AAAGAGTGTT and AAAGAGTTCA are within error of each other in switch fluorescence ratio: 0.9776 ± 0.0081 for the first, 1 ± 0.035 for the second.

Going from AAAGATAGGG to AAAGATCGTG, the switch fluorescence ratio falls from 1.01 ± 0.018 to 0.974 ± 0.01.

First: AAAGATTGTT
Second: AAAGCATAGG
The switch fluorescence ratio of the first is lower: 0.954 ± 0.011 for the first, 1.03 ± 0.015 for the second.

AAAGCCGAAT and AAAGCCTTGG are within error of each other in switch fluorescence ratio: 0.99 ± 0.023 for the first, 0.973 ± 0.021 for the second.

Going from AAAGCGGTAT to AAAGCGGTTG, the switch fluorescence ratio falls from 1.038 ± 0.007 to 0.98 ± 0.012.

AAAGCTAGGA and AAAGCTGCTT are within error of each other in switch fluorescence ratio: 0.979 ± 0.036 for the first, 0.987 ± 0.024 for the second.

AAAGCTTGGA and AAAGGAAAGT are within error of each other in switch fluorescence ratio: 1.03 ± 0.058 for the first, 1.01 ± 0.02 for the second.

AAAGGACGGG and AAAGGAGCGT are within error of each other in switch fluorescence ratio: 1.017 ± 0.0031 for the first, 0.992 ± 0.041 for the second.

AAAGGAGGGG and AAAGGATCGT are within error of each other in switch fluorescence ratio: 0.983 ± 0.02 for the first, 1.01 ± 0.02 for the second.

Compared with AAAGGATTTG, AAAGGCCCGT is higher in switch fluorescence ratio: 0.97 ± 0.0034 for the first, 1 ± 0.0077 for the second.

AAAGGCGCTG and AAAGGGACGG are within error of each other in switch fluorescence ratio: 0.984 ± 0.041 for the first, 0.9829 ± 0.0091 for the second.

AAAGGGAGGG and AAAGGGCGGA are within error of each other in switch fluorescence ratio: 1 ± 0.02 for the first, 0.9884 ± 0.009 for the second.

Compared with AAAGGGCGTG, AAAGGGGACC is higher in switch fluorescence ratio: 0.985 ± 0.022 for the first, 1.09 ± 0.053 for the second.

AAAGGGGACG and AAAGGGGGGT are within error of each other in switch fluorescence ratio: 1.01 ± 0.017 for the first, 0.989 ± 0.025 for the second.

Going from AAAGGGGTCG to AAAGGGTCAG, the switch fluorescence ratio falls from 1.07 ± 0.036 to 0.996 ± 0.034.

AAAGGGTCAT and AAAGGGTTGG are within error of each other in switch fluorescence ratio: 0.9918 ± 0.0086 for the first, 1.02 ± 0.02 for the second.

Going from AAAGGTAATT to AAAGGTATGG, the switch fluorescence ratio falls from 1.01 ± 0.015 to 0.961 ± 0.018.

AAAGGTGCAC and AAAGGTGCGG are within error of each other in switch fluorescence ratio: 0.968 ± 0.11 for the first, 0.9931 ± 0.0063 for the second.

AAAGGTGGGT and AAAGGTTGTT are within error of each other in switch fluorescence ratio: 1.51 ± 0.86 for the first, 1.013 ± 0.0037 for the second.

First: AAAGTAGCCT
Second: AAAGTAGGTA
The switch fluorescence ratio of the first is higher: 1.08 ± 0.057 for the first, 0.976 ± 0.011 for the second.

AAAGTAGTAA and AAAGTATATG are within error of each other in switch fluorescence ratio: 1.01 ± 0.037 for the first, 0.983 ± 0.029 for the second.

AAAGTATTTG and AAAGTATTTT are within error of each other in switch fluorescence ratio: 1.01 ± 0.05 for the first, 1.03 ± 0.067 for the second.

AAAGTCGCGT and AAAGTCTGGA are within error of each other in switch fluorescence ratio: 1 ± 0.032 for the first, 1.028 ± 0.01 for the second.

Compared with AAAGTGCTAT, AAAGTGCTCC is higher in switch fluorescence ratio: 1.02 ± 0.048 for the first, 1.095 ± 0.0075 for the second.

AAAGTGGCGT and AAAGTGGTTG are the same in switch fluorescence ratio: 0.984 ± 0.08 for the first, 0.984 ± 0.024 for the second.

AAAGTGTGCT and AAAGTGTTCC are within error of each other in switch fluorescence ratio: 1.01 ± 0.024 for the first, 1.03 ± 0.017 for the second.

AAAGTGTTCG and AAAGTTATGT are within error of each other in switch fluorescence ratio: 0.9797 ± 0.0097 for the first, 1 ± 0.045 for the second.

AAAGTTGGTA and AAAGTTGTCG are within error of each other in switch fluorescence ratio: 0.967 ± 0.055 for the first, 0.969 ± 0.051 for the second.

AAAGTTTTCA and AAAGTTTTGG are within error of each other in switch fluorescence ratio: 1.02 ± 0.028 for the first, 0.985 ± 0.026 for the second.

AAAGTTTTGT and AAATAAATTG are within error of each other in switch fluorescence ratio: 0.983 ± 0.023 for the first, 0.999 ± 0.044 for the second.

First: AAATAAGTC
Second: AAATACGCAG
The switch fluorescence ratio of the first is lower: 0.945 ± 0.024 for the first, 1.07 ± 0.1 for the second.

AAATAGGGTG and AAATATAAAC are within error of each other in switch fluorescence ratio: 1.13 ± 0.18 for the first, 1.03 ± 0.087 for the second.

Compared with AAATATTGCG, AAATCACGGA is higher in switch fluorescence ratio: 0.997 ± 0.034 for the first, 1.44 ± 0.23 for the second.

First: AAATCGCAGA
Second: AAATCGGATA
The switch fluorescence ratio of the first is lower: 1 ± 0.025 for the first, 1.03 ± 0.003 for the second.

AAATCGTACG and AAATCTGGGT are within error of each other in switch fluorescence ratio: 0.988 ± 0.048 for the first, 0.97 ± 0.013 for the second.

AAATCTGTAA and AAATGAGCTT are within error of each other in switch fluorescence ratio: 1.03 ± 0.06 for the first, 0.986 ± 0.029 for the second.

AAATGAGTGT and AAATGCGTTA are within error of each other in switch fluorescence ratio: 0.975 ± 0.026 for the first, 1.01 ± 0.02 for the second.

AAATGCGTTT and AAATGGAGAC are within error of each other in switch fluorescence ratio: 0.979 ± 0.019 for the first, 1.01 ± 0.034 for the second.

AAATGGAGGA and AAATGGATAG are within error of each other in switch fluorescence ratio: 0.988 ± 0.032 for the first, 1.007 ± 0.0029 for the second.

AAATGGATCG and AAATGGCCAT are within error of each other in switch fluorescence ratio: 1 ± 0.018 for the first, 1.01 ± 0.013 for the second.

AAATGGGGAA and AAATGGGTGG are within error of each other in switch fluorescence ratio: 1.004 ± 0.0069 for the first, 0.997 ± 0.025 for the second.

AAATGGTGTG and AAATGGTTGT are within error of each other in switch fluorescence ratio: 1.02 ± 0.019 for the first, 1.01 ± 0.02 for the second.

AAATGTTCTT and AAATGTTGAT are within error of each other in switch fluorescence ratio: 0.986 ± 0.031 for the first, 1.03 ± 0.019 for the second.
